The target of test [1] is T1, SH3BP1-CT (C-terminal region of SH3BP1, residues 541-701) (UniProt Q9Y3L3 541-701).
T1 construct: SH3BP1 C-terminal region containing all proline-rich motifs, residues 541-701, cloned into pET-21a; also called SH3PB1-CT; source: E. coli BL21-CodonPlus (DE3), purified (Ni column, Superdex 75)
T1 sequence (looked up): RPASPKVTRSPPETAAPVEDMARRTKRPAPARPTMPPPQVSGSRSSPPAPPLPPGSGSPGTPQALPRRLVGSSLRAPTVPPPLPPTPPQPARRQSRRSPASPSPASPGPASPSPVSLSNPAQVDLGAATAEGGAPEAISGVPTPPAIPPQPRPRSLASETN
Nature of the test: SPR; PACSIN2 SH3 domain immobilised on a PEG chip by amine coupling (Reichert SR7500DC); 25°C; PBS (10 mM KH2PO4, 137 mM NaCl, 2.7 mM KCl, pH 7.4); 3 min association, 10 min dissociation. The conditions noted are these: both partners purified.

The target of test [2] is T2, Cobll1-NT-f (N-terminal region of Cobll1, residues 1-410) (UniProt Q53SF7 1-410).
T2 construct: Cobll1 N-terminal region, residues 1-410, cloned into pGEX-4T-1; source: E. coli BL21-CodonPlus (DE3), purified (GST column, tag cleavage, ion exchange, Superdex)
The test is described as above. To be noted: both partners purified.

T2 sequence (Q53SF7 1-410): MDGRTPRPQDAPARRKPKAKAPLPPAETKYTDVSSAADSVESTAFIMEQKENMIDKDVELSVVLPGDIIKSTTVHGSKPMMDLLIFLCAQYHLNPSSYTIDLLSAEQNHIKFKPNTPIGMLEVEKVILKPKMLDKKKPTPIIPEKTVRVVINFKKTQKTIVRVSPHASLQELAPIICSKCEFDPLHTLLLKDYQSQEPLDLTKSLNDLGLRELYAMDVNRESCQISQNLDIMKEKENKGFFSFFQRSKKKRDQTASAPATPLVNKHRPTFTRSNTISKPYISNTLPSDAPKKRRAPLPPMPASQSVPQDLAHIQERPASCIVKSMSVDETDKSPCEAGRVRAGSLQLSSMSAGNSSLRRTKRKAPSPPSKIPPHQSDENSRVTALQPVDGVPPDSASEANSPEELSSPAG

B1: PACSIN2 SH3 domain (residues 430-486), purified (domain or fragment)
chain: not shown
notes: 15N- or 15N,13C-labelled for NMR, unlabelled for SPR; source: E. coli BL21-CodonPlus (DE3), purified (GST column, tag cleavage, ion exchange, Superdex)
On to B1, for which the Kd in test [1] worked out at 2.2 µM; in test [2], 0.0258 µM.
